Where no end group is shown, it is not given here.
Molecular target: bovine insulin (bovine, UniProt P01317 85-105; P01317 25-54)
Assay: ITC

Sequence of bovine insulin (P01317 85-105, chain 1 of 2): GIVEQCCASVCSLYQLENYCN
Sequence of bovine insulin (P01317 25-54, chain 2 of 2): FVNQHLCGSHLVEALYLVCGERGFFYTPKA

| Binder | stoichiometry N [peptides per insulin] | binding result |
| --- | --- | --- |
| Ac-DITTRYNGKVWWR (designed binder) [B2T_TT (N-DITTRYNGKVWWR-C), de novo designed 13-mer beta-hairpin peptide] | 4 |  |
| Ac-DIFFRYNGKVWWR (designed binder) [B2T_FF (N-DIFF-RYNGKVWWR-C), de novo designed 13-mer beta-hairpin peptide] |  | binds |
| Ac-KVYYRYNGKVWWR (designed binder) [B2T_KV (N-KVYY-RYNGKVWWR-C), de novo designed 13-mer beta-hairpin peptide] |  | binds |

From paper PMC9052121 (RSC Advances, 2020)
